This note sets out measurements from article PMC5584141 (The Journal of Cell Biology, 2017).

B2: recombinant Ihh (ligand)
chain: not shown

Holding throughout (assay): SPR
Test [1] has as its target B2.
Test [2] deals with recombinant Shh (UniProt Q62226 25-198).
Test [3] deals with T1, GPC6-AP fusion protein (UniProt Q9R087 24-530, carries glycosaminoglycan (GAG) chains; biotinylated with EZ-link Sulfo-NHS-LC biotin for SPR).
T1 sequence: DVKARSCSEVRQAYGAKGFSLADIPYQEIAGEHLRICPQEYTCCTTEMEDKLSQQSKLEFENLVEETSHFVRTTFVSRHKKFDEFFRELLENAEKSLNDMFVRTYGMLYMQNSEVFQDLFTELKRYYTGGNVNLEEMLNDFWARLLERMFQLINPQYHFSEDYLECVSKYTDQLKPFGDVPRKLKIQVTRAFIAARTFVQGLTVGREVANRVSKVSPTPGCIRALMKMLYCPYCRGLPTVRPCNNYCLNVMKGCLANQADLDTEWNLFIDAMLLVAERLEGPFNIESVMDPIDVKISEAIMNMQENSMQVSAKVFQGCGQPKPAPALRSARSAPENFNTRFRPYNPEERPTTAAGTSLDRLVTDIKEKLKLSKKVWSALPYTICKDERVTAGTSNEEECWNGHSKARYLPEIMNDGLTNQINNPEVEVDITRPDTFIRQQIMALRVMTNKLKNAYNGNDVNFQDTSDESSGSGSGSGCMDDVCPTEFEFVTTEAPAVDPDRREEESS

Chain of recombinant Shh (Q62226 25-198): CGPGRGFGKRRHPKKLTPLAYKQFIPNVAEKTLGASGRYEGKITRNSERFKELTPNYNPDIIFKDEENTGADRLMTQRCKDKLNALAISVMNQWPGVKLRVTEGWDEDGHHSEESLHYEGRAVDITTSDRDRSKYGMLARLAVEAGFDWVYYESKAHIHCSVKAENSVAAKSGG

B1: GPC6ΔGAG-AP fusion protein (natural protein)
chain: DVKARSCSEVRQAYGAKGFSLADIPYQEIAGEHLRICPQEYTCCTTEMEDKLSQQSKLEFENLVEETSHFVRTTFVSRHKKFDEFFRELLENAEKSLNDMFVRTYGMLYMQNSEVFQDLFTELKRYYTGGNVNLEEMLNDFWARLLERMFQLINPQYHFSEDYLECVSKYTDQLKPFGDVPRKLKIQVTRAFIAARTFVQGLTVGREVANRVSKVSPTPGCIRALMKMLYCPYCRGLPTVRPCNNYCLNVMKGCLANQADLDTEWNLFIDAMLLVAERLEGPFNIESVMDPIDVKISEAIMNMQENSMQVSAKVFQGCGQPKPAPALRSARSAPENFNTRFRPYNPEERPTTAAGTSLDRLVTDIKEKLKLSKKVWSALPYTICKDERVTAGTSNEEECWNGHSKARYLPEIMNDGLTNQINNPEVEVDITRPDTFIRQQIMALRVMTNKLKNAYNGNDVNFQDTSDESAGAGAGAGCMDDVCPTEFEFVTTEAPAVDPDRREEESS
modifications: biotinylated with EZ-link Sulfo-NHS-LC biotin for SPR
In the case of B1, the results for the Kd in test [1] and in test [2] were 16 nM and 21 nM, respectively.

B2 registered a Kd in test [3] of 14 nM.
